In US20240209076A1:

Columns and labels:
[1] = molecular target: VEGF (UniProt P15692); experiment: cell-based or functional assay
[2] = molecular target: VEGF-A165 (UniProt P15692); experiment: Biacore SPR at 37 C, binder captured on Protein A chip, VEGF-A165 0.19 to 15 nM in five steps, 1:1 Langmuir fit
[3] = molecular target: VEGF-A165 (UniProt P15692); experiment: SPR (Biacore T200), 37 C, binder captured on a Protein A chip, VEGF-A165 0.19 to 15 nM flowed over, 1:1 Langmuir fit
[4] = molecular target: VEGF-A165 (UniProt P15692); experiment: Biacore T200 SPR at 37 C, binder captured on Protein A chip, VEGF-A165 0.19 to 15 nM in five steps, 60 min dissociation, 1:1 Langmuir fit

Chain of VEGF-A165 (P15692 other isoform, or with tags, fused parts or gaps limits assumed): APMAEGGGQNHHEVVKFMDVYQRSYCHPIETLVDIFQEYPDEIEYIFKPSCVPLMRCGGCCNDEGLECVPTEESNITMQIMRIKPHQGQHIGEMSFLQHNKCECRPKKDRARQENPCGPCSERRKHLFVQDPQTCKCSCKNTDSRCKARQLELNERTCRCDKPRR
Chain of Eylea (Fc fusion) (chain): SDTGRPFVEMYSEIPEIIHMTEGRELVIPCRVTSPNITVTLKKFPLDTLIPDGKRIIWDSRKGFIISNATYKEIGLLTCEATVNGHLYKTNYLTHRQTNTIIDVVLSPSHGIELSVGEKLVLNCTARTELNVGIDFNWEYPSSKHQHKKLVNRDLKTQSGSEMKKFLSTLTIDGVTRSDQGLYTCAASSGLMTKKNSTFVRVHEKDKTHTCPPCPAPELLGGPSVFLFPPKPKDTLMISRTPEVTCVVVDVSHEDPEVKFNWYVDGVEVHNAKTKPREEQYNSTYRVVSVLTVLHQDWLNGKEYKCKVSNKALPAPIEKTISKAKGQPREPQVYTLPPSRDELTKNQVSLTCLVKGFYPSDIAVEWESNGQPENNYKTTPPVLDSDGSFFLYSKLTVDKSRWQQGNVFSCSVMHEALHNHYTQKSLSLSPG
Chain of VEGF (P15692 other isoform, or with tags, fused parts or gaps limits assumed): as the sequence (P15692 other isoform, or with tags, fused parts or gaps limits assumed) above

Substance: Eylea (Fc fusion)
- cell based VEGF stimulated VEGFR reporter assay, average IC50 [1]: 350 pM
- Kd [2]: 15.7 pM
- Kd [3]: 6.22 pM
- Kd [4]: 5.35 pM
